Experimental data as given in patent US20240059741A1, “COMPOSITION FOR PREVENTION OR TREATMENT OF SARS-COV-2 INFECTION” (priority 2020, published 2024).
Where a SMILES comes first, the peptide text is derived from it. Bridges are numbered along the chain shown (N, C = ends). Where no end group is shown, it is not given here.

Tests used:
[1] = target: T1, interaction of SARS-CoV-2 S1 and hACE2 in hACE2-overexpressed HEK293 cells (Severe acute respiratory syndrome coronavirus 2, UniProt P0DTC2); type: cell-based, human
T1 construct: S1 protein-His Tag (AcroBiosystems, S1N-C52H3-100UG, USA); AcroBiosystems (S1 protein) 145033; S1N-C52H3-100UG; host or cells: HEK293

S1 subunit of SARS-CoV-2 = target: T2, S1 subunit of SARS-CoV-2 (Severe acute respiratory syndrome coronavirus 2, UniProt P0DTC2); type: binding
T2 construct: ACE2 and S1 subunits of SARS-CoV-2; His Tag; purchased AcroBiosystems S1N-C52H3-100UG

Molecule	effect on membrane localization of S1 [1]	effect on S1-ACE2 interaction [1]	dependent binding to S1 (S1 subunit of SARS-CoV-2)
CC[C@H](C)[C@H](NC(=O)[C@H](CCCNC(=N)N)NC(=O)[C@@H]1CSSC[C@H](NC(=O)CNC(=O)CNC(=O)[C@@H]2CCCN2C(=O)[C@H](CO)NC(=O)[C@H](C)NC(=O)[C@H](CC(C)C)NC(=O)[C@H](CO)NC(=O)[C@H](CO)NC(=O)[C@H](CCCCN)NC(=O)[C@H](Cc2ccc(O)cc2)NC(=O)[C@H](Cc2ccccc2)NC(=O)[C@H](CC(C)C)NC(=O)[C@H](CC(=O)O)NC(=O)[C@H](CCC(=O)O)NC(=O)[C@@H]2CCCCNC(=O)C[C@H](NC(=O)[C@H](CCCCN)NC(=O)[C@H](CC(=O)O)NC(=O)[C@H](CC(C)C)NC(=O)[C@H](Cc3ccccc3)NC(=O)[C@H](CC(N)=O)NC(=O)[C@H](C)NC(=O)[C@H](C)NC(=O)[C@H](CCC(N)=O)NC(=O)[C@@H](N)CC(C)C)C(=O)N[C@@H](CC(N)=O)C(=O)N[C@@H](CC(=O)O)C(=O)N[C@@H](CCC(=O)O)C(=O)N2)C(=O)N[C@@H](CC(C)C)C(=O)NCC(=O)N[C@@H](CCCCN)C(=O)NCC(=O)N[C@@H](CC(=O)O)C(=O)N1)C(=O)N[C@@H](CC(C)C)C(=O)O [CSNP2] (H-LQAANFLDKDNDEKEDLFYKSSLASPGGCLGKGDCRIL-OH; lactam 10-14; disulfide 29-35; N-terminus and C-terminus assumed)	completely blocked the membrane localization of S1	–	–
CSNP3 (ENAINFLDKDNHEKEDLFYQ; not fully specified)	–	completely eliminated the S1-ACE2 interaction	no dependent binding
